T1: monkey MSLN on HEK293T-monkey MSLN recombinant cells (monkey)
T1 construct: Full-length precursor as transfected; processing on the cell is not described; also called HEK293-monkey MSLN
T1 chain: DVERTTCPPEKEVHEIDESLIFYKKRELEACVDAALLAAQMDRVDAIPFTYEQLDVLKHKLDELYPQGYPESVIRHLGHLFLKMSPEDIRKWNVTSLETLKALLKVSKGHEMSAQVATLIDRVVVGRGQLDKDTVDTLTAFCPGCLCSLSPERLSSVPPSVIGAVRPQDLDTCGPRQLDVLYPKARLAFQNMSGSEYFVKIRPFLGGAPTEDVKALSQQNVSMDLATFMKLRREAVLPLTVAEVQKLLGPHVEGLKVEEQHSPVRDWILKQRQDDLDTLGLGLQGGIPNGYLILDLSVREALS


How the values were obtained:
[1] = molecular target: T2, human MSLN on OVCAR3 tumor cells (human, UniProt Q13421 296-598); assay: FACS, OVCAR3 cells
T2 construct: whole, on cells; also called human MSLN protein

[2] = molecular target: T3, human MSLN-R3 on HEK293T-hMSLN-R3 recombinant cells (human, UniProt Q13421 487-606); assay: FACS, HEK293T-hMSLN-R3 cells
T3 construct: the C-terminal limit is uncertain; also called human MSLN-R3 membrane protein

[3] = molecular target: T1, monkey MSLN on HEK293T-monkey MSLN …; assay: FACS, HEK293T-monkey MSLN cells

T2 sequence (Q13421 other isoform, or with tags, fused parts or gaps): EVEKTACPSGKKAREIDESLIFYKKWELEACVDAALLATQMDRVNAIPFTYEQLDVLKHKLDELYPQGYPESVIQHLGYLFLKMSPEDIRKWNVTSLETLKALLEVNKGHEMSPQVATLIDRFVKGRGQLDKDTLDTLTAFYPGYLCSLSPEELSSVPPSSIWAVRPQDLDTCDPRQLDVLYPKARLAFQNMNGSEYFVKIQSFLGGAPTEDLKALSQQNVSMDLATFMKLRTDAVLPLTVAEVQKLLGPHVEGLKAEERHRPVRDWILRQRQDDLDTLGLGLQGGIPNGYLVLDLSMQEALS
T3 sequence (Q13421 495-614): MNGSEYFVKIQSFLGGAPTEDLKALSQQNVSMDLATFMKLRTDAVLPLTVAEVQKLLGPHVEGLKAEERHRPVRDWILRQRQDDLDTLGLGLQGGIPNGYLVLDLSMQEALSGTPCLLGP

| Binder | EC50 [1] [nM] | Maximum_MFI [1] [MFI] | EC50 [2] [nM] | Maximum_MFI [2] [MFI] | EC50 [3] [nM] | Maximum_MFI [3] [MFI] |
| --- | --- | --- | --- | --- | --- | --- |
| F7.44.20-H3 (scFv, not shown: small tags and cut ends, also called S009-F7.44.20 humanized antibody VH1 + VL3) scFv: EVQLVQSGAEVKKPGASVKVSCKASGYTFTDYNMDWVRQAPGQGLEWMGDINPSTGGTIYNQKFNGRVTMTEDKSTSTVYMELSSLRSEDTAVYYCARRRIGTGYFDVWGQGTTVTVSSGGGGSGGGGSGGGGSEIVLTQSPATLSLSPGERATLSCSASSSVISSYLSWYQQKPGQSPRLLIYRTSNLASGIPARFSGSGSGTDYTLTISSLEPEDFAVYYCHQWSSFPYTFGGGTKVEIK | 0.69 | 1810 | 1.57 | 1490 | 7.34 | 7000 |
| F7.44.20-H8 (scFv, not shown: small tags and cut ends, also called S009-F7.44.20 humanized antibody VH1a + VL4) scFv: EVQLVQSGAEVKKPGASVKVSCKASGYTFTDYNMDWVRQAPGQGLEWMGDINPSTGGTIYNQKFQGRVTMTEDKSTSTVYMELSSLRSEDTAVYYCARRRIGTGYFDVWGQGTTVTVSSGGGGSGGGGSGGGGSEIVLTQSPATLSLSPGERATLSCSASSSVISSYLSWYQQKPGSSPRLLIYRTSNLASGIPARFSGSGSGTDYTLTISSLEPEDFAVYYCHQWSSFPYTFGGGTKVEIK | 1.04 | 1880 | 1.95 | 1650 | 7.09 | 6320 |
| F7.44.20-H7 (scFv, not shown: small tags and cut ends, also called S009-F7.44.20 humanized antibody VH1a + VL3) scFv: EVQLVQSGAEVKKPGASVKVSCKASGYTFTDYNMDWVRQAPGQGLEWMGDINPSTGGTIYNQKFQGRVTMTEDKSTSTVYMELSSLRSEDTAVYYCARRRIGTGYFDVWGQGTTVTVSSGGGGSGGGGSGGGGSEIVLTQSPATLSLSPGERATLSCSASSSVISSYLSWYQQKPGQSPRLLIYRTSNLASGIPARFSGSGSGTDYTLTISSLEPEDFAVYYCHQWSSFPYTFGGGTKVEIK | 1.11 | 1840 | 2.12 | 1510 | 9.24 | 6130 |
| F7.44.20-H12 (scFv, not shown: small tags and cut ends, also called S009-F7.44.20 humanized antibody VH2 + VL4) scFv: EVQLVQSGAEVKKPGASVKVSCKASGYTFTDYNMDWVRQAPGQGLEWMGDINPSTGGTIYNQKFNGRVTMTEDKSASTVYMELSSLRSEDTAVYYCARRRIGTGYFDVWGQGTTVTVSSGGGGSGGGGSGGGGSEIVLTQSPATLSLSPGERATLSCSASSSVISSYLSWYQQKPGSSPRLLIYRTSNLASGIPARFSGSGSGTDYTLTISSLEPEDFAVYYCHQWSSFPYTFGGGTKVEIK | 1.5 | 2100 | 2.88 | 1410 | 10.3 | 6670 |
| F7.44.20-H4 (scFv, not shown: small tags and cut ends, also called S009-F7.44.20 humanized antibody VH1 + VL4) scFv: EVQLVQSGAEVKKPGASVKVSCKASGYTFTDYNMDWVRQAPGQGLEWMGDINPSTGGTIYNQKFNGRVTMTEDKSTSTVYMELSSLRSEDTAVYYCARRRIGTGYFDVWGQGTTVTVSSGGGGSGGGGSGGGGSEIVLTQSPATLSLSPGERATLSCSASSSVISSYLSWYQQKPGSSPRLLIYRTSNLASGIPARFSGSGSGTDYTLTISSLEPEDFAVYYCHQWSSFPYTFGGGTKVEIK | 1.26 | 1680 | 2.64 | 1470 | 10.4 | 6450 |
| F7.44.20-H11 (scFv, not shown: small tags and cut ends, also called S009-F7.44.20 humanized antibody VH2 + VL3) scFv: EVQLVQSGAEVKKPGASVKVSCKASGYTFTDYNMDWVRQAPGQGLEWMGDINPSTGGTIYNQKFNGRVTMTEDKSASTVYMELSSLRSEDTAVYYCARRRIGTGYFDVWGQGTTVTVSSGGGGSGGGGSGGGGSEIVLTQSPATLSLSPGERATLSCSASSSVISSYLSWYQQKPGQSPRLLIYRTSNLASGIPARFSGSGSGTDYTLTISSLEPEDFAVYYCHQWSSFPYTFGGGTKVEIK | 0.61 | 1950 | 1.14 | 1680 | 3.74 | 7210 |

From patent US20250250357A1 (NANJING ZAIMING PHARMACEUTICAL, published 2025)
